Measured values taken from patent US20240309087A1 (SHANGHAI JUNSHI BIOSCIENCES, published 2024).

T1: hCD112R mFC recombinant protein (human; murine, UniProt Q6DKI7 41-160)
T1 construct: range 41-160; expressed in 293E cells; also called hCD112R ECD mFC; hCD112R-ECD-mFC; not shown: murine IgG2a Fc domain (MX2-mFc vector)
T1 sequence (looked up): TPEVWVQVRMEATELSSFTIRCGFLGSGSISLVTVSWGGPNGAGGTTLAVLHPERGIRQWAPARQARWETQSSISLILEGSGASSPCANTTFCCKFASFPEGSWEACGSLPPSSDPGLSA

T2: human CD112R on Jurkat CD112R effector cells (human, UniProt Q6DKI7 1-326)
T2 sequence (looked up): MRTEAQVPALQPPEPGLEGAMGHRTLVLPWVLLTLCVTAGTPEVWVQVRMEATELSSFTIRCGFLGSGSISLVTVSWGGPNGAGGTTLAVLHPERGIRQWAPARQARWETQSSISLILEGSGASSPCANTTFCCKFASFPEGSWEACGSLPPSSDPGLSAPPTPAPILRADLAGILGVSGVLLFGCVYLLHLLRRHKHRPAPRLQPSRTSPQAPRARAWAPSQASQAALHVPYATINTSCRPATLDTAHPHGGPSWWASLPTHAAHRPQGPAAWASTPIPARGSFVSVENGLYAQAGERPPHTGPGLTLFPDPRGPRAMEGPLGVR


Tests used:
[1] = molecular target: T1, hCD112R mFC recombinant protein; assay: ELISA, coated hCD112R-ECD-mFC
Experimental: (§1) A plate was coated with a hCD112R-ECD-mFC protein (1.5 μg/mL) at a fixed concentration, and the humanized anti-CD112R antibodies diluted in a gradient (initial concentration: 1 μg/mL, 2.5-fold gradient dilution, 12 concentration gradients in total) were added to bind to the antigen. HRP-conjugated goat anti-human antibody IgG (Fc specific) (Sigma, A0170) was subjected to a 5000-fold dilution and used as a detection antibody for detection. The color development was performed with 0.1 mg/mL TMB, and finally stopped with 2 M hydrochloric acid. The plate was read at 420 nm/620 nm. EC₅₀ was obtained by fitting with a four-parameter logistic regression (4PL) model. The […] were COM701 (anti-CD112R antibody, Compugen, obtained by expression and purification according to the sequences in US20180280506A1) and the anti-KLH hu-IgG4 antibody.

[2] = molecular target: T1, hCD112R mFC recombinant protein; assay: FACS competition, hCD112R mFc on CHO CD112 cells; IC50 COM701/IC50 antibody
Experimental: (§2) Cells CHO CD112 overexpressing human CD112 were co-incubated with a hCD112R mFc protein solution (5 μg/mL) prepared in a staining buffer (PBS+1% FBS), and the humanized anti-CD112R antibodies or the control antibodies at different concentrations (initial concentration: 100 μg/mL, 3-fold dilution, 10 concentration gradients) at 4° C. for 30 min. Unbound antibodies were then washed with a staining buffer and the cells were incubated with 1% (v/v) goat anti-mouse IgG Fc fluorescent secondary antibodies (Jackson ImmunoResearch) prepared in a staining buffer at 4° C. for 30 min in the dark. Finally, the cells were collected by using a flow cytometer (BD Canto II), and the fluorescent antibodies bound to the cell surface were detected. Raw data were analyzed by using FlowJo to obtain MFI values, and a four-parameter curve fitting was performed by using GraphPad Prism software to obtain IC₅₀ values. The positive control and the negative control were COM701 (anti-CD112R antibody, Compugen, obtained by expression and purification according to the sequences in US20180280506A1) and the anti-KLH hu-IgG4 antibody, respectively.

[3] = molecular target: T1, hCD112R mFC recombinant protein; assay: ELISA, coated hCD112R-ECD-mFC; EC50 COM701/EC50 antibody
Experimental: as §1

[4] = molecular target: T2, human CD112R on Jurkat CD112R effector …; assay: cell-based or functional assay
[5] = molecular target: T1, hCD112R mFC recombinant protein; assay: FACS competition, hCD112R mFc on CHO CD112 cells
Experimental: as §2

Row | Binder | EC50 [1] [µg/mL] | Relative activity (%) [2] [%] | Relative activity (%) [3] [%] | EC50, CD112R/CD112 reporter [4] [µg/mL] | Relative activity (%), EC50 COM701/EC50 antibody [4] [%] | IC50 [5] [µg/mL]
1 | Hu50 (antibody, IgG4, V domains shown, humanized IgG4) VH: EVQLVESGGGLVKPGGSLRLSCAASGFTFSSYHMSWVRQAPGKGLELVSAINSNGINTYYLDTVKGRFTISRDNAKNSLYLQMNSLRAEDTAVYYCARHEDYYGFAMDYWGQGTLVTVSS VL: AIQMTQSPSSLSASVGDRVTITCKASQSVTNDVAWYQQKPGKAPKLLIYYVSNHYTGVPSRFSGSGSGTDFTLTISSLQPEDFATYFCQQAYRSPWTFGQGTKLEIK | 0.00459 | 90 | 190 | 0.0268 | 245 | 2.67
2 | Hu2 (antibody, IgG4, V domains shown, humanized IgG4; also called Hu-02) VH: EVQLVESGGGLVQPGGSLRLSCAASGFTFSSYHMSWVRQAPGKGLELVAAINSNDINTYYLDTVKGRFTISRDIAKNSLYLQMNSLRAEDTAVYYCARHEDYYGFAMDYWGQGTLVTVSS VL: AIQMTQSPSSLSASVGDRVTITCKASQSVTNDVAWYQQKPGKAPKLLIYYVSNHYTGVPSRFSGSGSGTDFTLTISSLQPEDFATYFCQQAYRSPWTFGQGTKLEIK | 0.00303 | 92.9 | 141 | 0.0577 | 110 | 4.28
3 | Hu8 (antibody, IgG4, V domains shown, humanized IgG4; also called Hu-08) VH: EVQLVESGGGLVKPGGSLRLSCAASGFTFSSYHMSWVRQAPGKGLELVSAINSNDINTYYLDTVKGRFTISRDIAKNSLYLQMNSLRAEDTAVYYCARHEDYYGFAMDYWGQGTLVTVSS VL: AIQMTQSPSSLSASVGDRVTITCKASQSVTNDVAWYQQKPGKAPKLLIYYVSNHYTGVPSRFSGSGSGTDFTLTISSLQPEDFATYFCQQAYRSPWTFGQGTKLEIK | 0.00309 | 86.1 | 127 | 0.0633 | 110 | 4.62
4 | Hu5 (antibody, IgG4, V domains shown, humanized IgG4; also called Hu-05) VH: EVQLVESGGGLVQPGGSLRLSCAASGFTFSSYHMSWVRQAPGKGLELVAAINSNDINTYYLDTVKGRFTISRDIAKNSLYLQMNSLRAEDTAVYYCARHEDYYGFAMDYWGQGTLVTVSS VL: DIQMTQSPSSLSASVGDRVTITCKASQSVSNDVAWYQQKPGKAPKLLIYYVSNRFTGVPSRFSGSGSGTDFTLTISSLQPEDFATYFCQQAYRSPWTFGQGTKLEIK | 0.00275 | 90.2 | 155 | 0.0461 | 148 | 4.41
5 | Hu25 (antibody, IgG4, V domains shown, humanized IgG4) VH: EVQLVESGGGLVQPGGSLRLSCAASGFTFSSYHMSWVRQAPGKGLELVAAISRDGDSTYYPDTVKGRFTISRDNAKNSLYLQMNSLRAEDTAVYYCSRHEDYFGFAMDSWGQGTLVTVSS VL: DIVMTQSPDSLAVSLGERATINCKASQSVTNDVAWYQQKPGQPPKLLIYYVSNHYTGVPDRFSGSGSGTDFTLTISSLQAEDVAVYFCQQAYRSPWTFGQGTKLEIK | 0.00403 | 97 | 165 | 0.0412 | 157 | 3.7
6 | Hu32 (antibody, IgG4, V domains shown, humanized IgG4) VH: EVQLVESGGGLVQPGGSLRLSCAASGFTFSSYHMSWVRQAPGKGLELVAAISRDGDSTYYPDTVKGRFTISRDDAENSLYLQMNSLRAEDTAVYYCSRHEDYFGFAMDSWGQGTLVTVSS VL: AIQMTQSPSSLSASVGDRVTITCKASQSVTNDVAWYQQKPGKAPKLLIYYVSNHYTGVPSRFSGSGSGTDFTLTISSLQPEDFATYFCQQAYRSPWTFGQGTKLEIK | 0.00404 | 127 | 150 | 0.0471 | 119 | 2.82
7 | Hu58 (antibody, IgG4, V domains shown, humanized IgG4) VH: EVQLVESGGGLVQPGGSLRLSCAASGFTFSSYHMSWIRQAPGKGLELVAAINSNGINTYYLDTVKGRFTISRDNAKNSLYLQMNSLRAEDTAVYYCARHEDYYGFAMDYWGQGTLVTVSS VL: DIVMTQSPDSLAVSLGERATINCKASQSVSNDVAWYQQKPGQPPKLLIYYVSHRFTGVPDRFSGSGSGTDFTLTISSLQAEDVAVYFCHQAYRSPWTFGQGTKLEIK | 0.00488 | 74 | 172 | 0.0216 | 277 | 3.25
8 | Hu31 (antibody, IgG4, V domains shown, humanized IgG4) VH: EVQLVESGGGLVQPGGSLRLSCAASGFTFSSYHMSWVRQAPGKGLELVAAISRDGDSTYYPDTVKGRFTISRDDAENSLYLQMNSLRAEDTAVYYCSRHEDYFGFAMDSWGQGTLVTVSS VL: DIVMTQSPDSLAVSLGERATINCKASQSVTNDVAWYQQKPGQPPKLLIYYVSNHYTGVPDRFSGSGSGTDFTLTISSLQAEDVAVYFCQQAYRSPWTFGQGTKLEIK | 0.00339 | 142 | 179 | 0.0507 | 110 | 2.52
9 | Hu55 (antibody, IgG4, V domains shown, humanized IgG4) VH: EVQLVESGGGLVQPGGSLRLSCAASGFTFSSYHMSWIRQAPGKGLELVAAINSNGINTYYLDTVKGRFTISRDNAKNSLYLQMNSLRAEDTAVYYCARHEDYYGFAMDYWGQGTLVTVSS VL: DIVMTQSPDSLAVSLGERATINCKASQSVTNDVAWYQQKPGQPPKLLIYYVSNHYTGVPDRFSGSGSGTDFTLTISSLQAEDVAVYFCQQAYRSPWTFGQGTKLEIK | 0.00553 | 85.7 | 166 | 0.0223 | 302 | 2.81
10 | Hu49 (antibody, IgG4, V domains shown, humanized IgG4) VH: EVQLVESGGGLVKPGGSLRLSCAASGFTFSSYHMSWVRQAPGKGLELVSAINSNGINTYYLDTVKGRFTISRDNAKNSLYLQMNSLRAEDTAVYYCARHEDYYGFAMDYWGQGTLVTVSS VL: DIVMTQSPDSLAVSLGERATINCKASQSVTNDVAWYQQKPGQPPKLLIYYVSNHYTGVPDRFSGSGSGTDFTLTISSLQAEDVAVYFCQQAYRSPWTFGQGTKLEIK | 0.00495 | 97.5 | 176 | 0.0307 | 214 | 2.47
